The values that follow come from patent US20110265198.

Test in all cases: cell_activity
The test system of one data set is ZFN 18477 (synthetic). The note with it: pair with 18473; Cel-I assay.
In the next data set the test system is ZFN 25096 (synthetic). The note with it: pair with 18473; Cel-I assay.
A further data set deals with ZFN 18473 (synthetic). The note with it: pair with 25096 (26.5% with 18477); Cel-I assay.

The sequence “CTAGAAAGACTGGAGTTGCAGATCACGA (double strand) [18477 target]” displayed an activity with ZFN 18477 (synthetic) of 26.5 % NHEJ.

In the data set with ZFN 25096 (synthetic), “CTAGAAAGACTGGAGTTGCAGATCACGA (double strand) [25096 target]” came in with an activity of 35.7 % NHEJ.

Take “GATGGGCGGGAGTCTTCTGGGCAGGCTT (double strand) [18473 target]”: the activity with ZFN 18473 (synthetic) amounted to 35.7 % NHEJ.
